According to the supplement of paper PMC10567573:

B1: FADS1 (parent)
chain: LNFQIEHHLFPTMPRHNYHKVAPL

Variants of: B1
Test: protein stability index of a GFP-peptide fusion (GPS, HEK-293T) (PSI 1-6); higher = more stable
Conditions: c terminus: a fixed tail appended
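Also: lentivirally expressed fusions sorted by FACS into six bins by GFP to DsRed ratio, PSI derived from sequencing read proportions per bin multiplied by bin number.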

Point of comparison: LNFQIEHHLFPTMERHNYHKVAPL [P14E], protein stability index 2.13. Against it:
- LNHQIEHHLFPTMPRHNYHKVAPL [F3H] — lower, 1.83
- LNNQIEHHLFPTMPRHNYHKVAPL [F3N] — higher, 2.52
- LNVQIEHHLFPTMPRHNYHKVAPL [F3V] — lower, 1.96
- LNPQIEHHLFPTMPRHNYHKVAPL [F3P] — lower, 1.95
- LNFQIEHHLFPTMPRHNYHKVALL [P23L] — higher, 2.4
- LNFQIEHHLFPTMPRHNYHKVANL [P23N] — lower, 2.09
- LNFQIEHHLFPTMPRHNYHKVAWL [P23W] — higher, 2.27
- LNFQIEHHLFPTMPRHNYHKVAML [P23M] — lower, 2.06
- LNFQIEHHLFPTMPRHVYHKVAPL [N17V] — lower, 1.43
- LNFQIEHHLFPTMPRHRYHKVAPL [N17R] — higher, 2.48
- LNFQIEHHLFPTMPRHDYHKVAPL [N17D] — higher, 2.28
- LNFQIEHHLFPTMPRHTYHKVAPL [N17T] — higher, 2.19
- LNFQIEHHLFPTMPRKNYHKVAPL [H16K] — lower, 1.22
- LNFQIEHHLFPTMPRENYHKVAPL [H16E] — higher, 2.52
- LNFQIEHHLFPTMPRYNYHKVAPL [H16Y] — higher, 3.52
- LMFQIEHHLFPTMPRHNYHKVAPL [N2M] — lower, 1.53
- LSFQIEHHLFPTMPRHNYHKVAPL [N2S] — lower, 1.88
- LAFQIEHHLFPTMPRHNYHKVAPL [N2A] — lower, 2.02
- LNFQIEHHLFPTMPRHNLHKVAPL [Y18L] — lower, 1.69
- LNFQIEHHLFPTMPRHNAHKVAPL [Y18A] — higher, 2.95
- VNFQIEHHLFPTMPRHNYHKVAPL [L1V] — higher, 2.18
- TNFQIEHHLFPTMPRHNYHKVAPL [L1T] — lower, 2.03
- QNFQIEHHLFPTMPRHNYHKVAPL [L1Q] — higher, 2.31
- WNFQIEHHLFPTMPRHNYHKVAPL [L1W] — higher, 3.02
- MNFQIEHHLFPTMPRHNYHKVAPL [L1M] — lower, 1.63
- ENFQIEHHLFPTMPRHNYHKVAPL [L1E] — higher, 2.29
- LNFQIEHHLFPTFPRHNYHKVAPL [M13F] — lower, 1.97
- LNFQIEHHLFPTNPRHNYHKVAPL [M13N] — lower, 1.91
- LNFQIEHHLFPTAPRHNYHKVAPL [M13A] — lower, 2.02
- LNFQIEHHLFPTGPRHNYHKVAPL [M13G] — the same, 2.13
- LNFQIEHHLFPTDPRHNYHKVAPL [M13D] — lower, 1.82
- LNFQIEHHLFPTMPRHNYSKVAPL [H19S] — higher, 2.35
- LNFQIEHHLFPTMPRHNYYKVAPL [H19Y] — higher, 2.58
- LNFQIEHHLFPTMPRHNYIKVAPL [H19I] — higher, 3.24
- LNFQIEHHLFPTMPRHNYHKVAPC [L24C] — higher, 2.52
- LNFQIEHHLFPTMPRHNYHKVAPY [L24Y] — higher, 3.02
- LNFQIEHHLFPYMPRHNYHKVAPL [T12Y] — higher, 2.5
- LNFQIEHHLFPVMPRHNYHKVAPL [T12V] — higher, 2.29
- LNFQIEHHLFPAMPRHNYHKVAPL [T12A] — higher, 2.56
- LNFQIETHLFPTMPRHNYHKVAPL [H7T] — higher, 2.82
- LNFQIEHHLFQTMPRHNYHKVAPL [P11Q] — higher, 2.73
- LNFQIEHHLFFTMPRHNYHKVAPL [P11F] — higher, 2.77
- LNFQIEHHLFGTMPRHNYHKVAPL [P11G] — lower, 1.9
- LNFQIEHHLFDTMPRHNYHKVAPL [P11D] — higher, 3.83
- LNFQIEHHLFPTMHRHNYHKVAPL [P14H] — lower, 1.9
- LNFQIEHHLFPTMIRHNYHKVAPL [P14I] — lower, 2.08
- LNFQIEHHLFPTMDRHNYHKVAPL [P14D] — higher, 2.52
- LNFQIEHHLFPTMPRHNYHNVAPL [K20N] — higher, 2.58
- LNFQIEHHLFPTMPRHNYHRVAPL [K20R] — higher, 2.76
- LNFQIEHHLFPTMPRHNYHAVAPL [K20A] — lower, 1.9
- LNFQIDHHLFPTMPRHNYHKVAPL [E6D] — higher, 2.54
- LNFQICHHLFPTMPRHNYHKVAPL [E6C] — higher, 2.65
- LNFQIAHHLFPTMPRHNYHKVAPL [E6A] — higher, 2.54
- LNFEIEHHLFPTMPRHNYHKVAPL [Q4E] — higher, 2.25
- LNFYIEHHLFPTMPRHNYHKVAPL [Q4Y] — higher, 3.01
- LNFPIEHHLFPTMPRHNYHKVAPL [Q4P] — lower, 1.24
- LNFAIEHHLFPTMPRHNYHKVAPL [Q4A] — lower, 1.44
- LNFDIEHHLFPTMPRHNYHKVAPL [Q4D] — lower, 1.66
- LNFIIEHHLFPTMPRHNYHKVAPL [Q4I] — higher, 3.5
- LNFNIEHHLFPTMPRHNYHKVAPL [Q4N] — higher, 2.22
- LNFGIEHHLFPTMPRHNYHKVAPL [Q4G] — lower, 2.08
- LNFQIEHHLFPTMPRHNYHKIAPL [V21I] — higher, 3.07
- LNFQIEHHLFPTMPRHNYHKCAPL [V21C] — higher, 2.38
- LNFQIEHHLFPTMPRHNYHKLAPL [V21L] — higher, 2.24
- LNFQIEHHLFPTMPFHNYHKVAPL [R15F] — higher, 2.68
- LNFQIEHHLFPTMPYHNYHKVAPL [R15Y] — higher, 3.31
- LNFQIEHHLFPTMPRHNYHKVNPL [A22N] — lower, 1.69
- LNFQIEHHLFPTMPRHNYHKVPPL [A22P] — lower, 2.1
- LNFQIEHHLFPTMPRHNYHKVHPL [A22H] — lower, 1.89
- LNFQIEHHLFPTMPRHNYHKVFPL [A22F] — lower, 1.78
- LNFQSEHHLFPTMPRHNYHKVAPL [I5S] — higher, 2.18
- LNFQDEHHLFPTMPRHNYHKVAPL [I5D] — higher, 2.4
- LNFQAEHHLFPTMPRHNYHKVAPL [I5A] — lower, 1.83
- LNFQNEHHLFPTMPRHNYHKVAPL [I5N] — higher, 2.52
- LNFQIEHHLVPTMPRHNYHKVAPL [F10V] — lower, 1.05
- LNFQIEHHLHPTMPRHNYHKVAPL [F10H] — higher, 3.04
- LNFQIEHHLTPTMPRHNYHKVAPL [F10T] — lower, 1.39
- LNFQIEHHLIPTMPRHNYHKVAPL [F10I] — higher, 2.97
- LNFQIEHHLNPTMPRHNYHKVAPL [F10N] — higher, 2.28
- LNFQIEHHLGPTMPRHNYHKVAPL [F10G] — higher, 2.73
- LNFQIEHHDFPTMPRHNYHKVAPL [L9D] — lower, 2.04
- LNFQIEHHPFPTMPRHNYHKVAPL [L9P] — lower, 1.5
- LNFQIEHHNFPTMPRHNYHKVAPL [L9N] — lower, 1.57
- LNFQIEHHQFPTMPRHNYHKVAPL [L9Q] — lower, 1.34
- LNFQIEHHMFPTMPRHNYHKVAPL [L9M] — lower, 1.95
- LNFQIEHHAFPTMPRHNYHKVAPL [L9A] — lower, 1.39
- LNFQIEHHFFPTMPRHNYHKVAPL [L9F] — higher, 3.13
- LNFQIEHILFPTMPRHNYHKVAPL [H8I] — higher, 3.23
- LNFQIEHKLFPTMPRHNYHKVAPL [H8K] — lower, 1.93
- LNFQIEHCLFPTMPRHNYHKVAPL [H8C] — higher, 2.41
- LNFQIEHMLFPTMPRHNYHKVAPL [H8M] — higher, 2.14
- LNFQIEHGLFPTMPRHNYHKVAPL [H8G] — lower, 1.58
- LNFQIEHNLFPTMPRHNYHKVAPL [H8N] — lower, 2.06
